Residue numbers refer to the chain shown, from its start. Numbers in names are those of the source.
B1: Venus-Bad, Q92934 1-168 (natural protein)
chain: MFQIPEFEPSEQEDSSSAERGLGPSPAGDGPSGSGKHHRQAPGLLWDASHQQEQPTSSSHHGGAGAVEIRSRHSSYPAGTEDDEGMGEEPSPFRGRSRSAPPNLWAAQRYGRELRRMSDEFVDSFKKGLPRPKSAGTATQMRQSSSWTRVFQSWWDRNLGRGSSAPSQ
B2: BimL single-cysteine mutant 41C, Alexa568-labelled I188E (protein)
chain: MAKQPSDVSSECDREGGQLQPAERPPQLRPGAPTSLQTEPCDRSPAPMSCDKSTQTPSPPCQAFNHYLSAMASIRQSQEEPEDLRPEIRIAQELRRIGDEFNETYTRRVFANDYREAEDHPQMVILQLLRFEFRLVWRRH
B3: BimL single-cysteine mutant 41C, Alexa568-labelled I181E (protein)
chain: B2 chain with I125E, E132I

Key:
[1] = target: mCerulean3-Bcl-XL (human), Q07817; assay: FRET or BRET; FLIM-FRET in live MCF-7 cells: mCer3-Bcl-XL or mCer3-Bcl-2 stably expressed (donor), Venus-BH3 protein transiently expressed (acceptor); binding curves of FLIM-FRET efficiency against the Venus:mCer3 intensity ratio, 25 C; untreated, DMSO, 20 uM ABT-263 (18-24 h) or 1.25-20 uM A-1155463, A-1331852, ABT-263; R values interpolated at ratio 0.5 (Bcl-XL) or 0.25 (Bcl-2), ^VBad4E signal subtracted; details: remark: other sources report otherwise
Sequence of mCerulean3-Bcl-XL (human), Q07817 (Q07817 whole entry): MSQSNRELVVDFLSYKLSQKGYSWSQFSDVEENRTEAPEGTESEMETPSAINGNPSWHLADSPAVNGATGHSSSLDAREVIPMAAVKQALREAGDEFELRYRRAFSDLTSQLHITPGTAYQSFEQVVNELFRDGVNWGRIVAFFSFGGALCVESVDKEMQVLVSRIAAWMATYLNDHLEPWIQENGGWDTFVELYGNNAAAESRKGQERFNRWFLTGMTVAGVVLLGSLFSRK

[2] = target: mCerulean3-Bcl-2 (human), P10415; assay: as above; details: remark: other sources report otherwise
Sequence of mCerulean3-Bcl-2 (human), P10415 (P10415 whole entry): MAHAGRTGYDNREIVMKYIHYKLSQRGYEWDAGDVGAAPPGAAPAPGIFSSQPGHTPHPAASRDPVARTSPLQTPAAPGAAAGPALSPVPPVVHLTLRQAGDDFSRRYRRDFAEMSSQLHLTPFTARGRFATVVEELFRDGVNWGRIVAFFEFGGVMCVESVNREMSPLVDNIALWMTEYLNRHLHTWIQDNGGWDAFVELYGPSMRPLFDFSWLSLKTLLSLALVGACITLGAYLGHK

[3] = target: Bcl-XL single-cysteine mutant 152C, Alexa647-labelled, Q07817-1; assay: FRET with purified proteins; details: chain shown with the change, highest ABT-263 point, x position est. about 3000 nM, read off a plot
Sequence of Bcl-XL single-cysteine mutant 152C, Alexa647-labelled, Q07817-1 (Q07817 whole entry, stated change not applied): as the sequence (Q07817 whole entry) above

[4] = in solution, without liposomes, parent: est. 68
[5] = with liposomes, parent: est. 99

Row | Binder | IC50 of A-1155463 for disrupting the pair [1] | IC50 of A-1331852 for disrupting the pair [1] | IC50 of ABT-263 for disrupting the pair [1] | R (ABT-263), % of FRET signal left with 20 uM ABT-263 [1] | R with A-1155463, % of FRET signal left [1] | R with A-1331852, % of FRET signal left [1] | R (ABT-263), % of FRET signal left with 20 uM ABT-263 [2] | response (% BH3 protein bound) [3, 4] | response (% BH3 protein bound) [3, 5]
1 | B1 | < 1.25 µM | < 1.25 µM | > 10 µM | 46.4% | 45% | 20% | 18.6% | – | –
2 | B2 | – | – | – | – | – | – | – | 18 | 22
3 | B3 | – | – | – | – | – | – | – | 14 | 24

— article PMC6414199, “Bim escapes displacement by BH3-mimetic anti-cancer drugs by double-bolt locking both Bcl-XL and Bcl-2” (eLife, 2019)
